# Assay results taken from patent US20110311550A1 (Scripps Research, published 2011).
# Columns and labels:
# Experiment in all cases: ELISA, alanine mutant E1E2
# [1] = target: H77 E1E2 mutant Y485A (HCV isolate H77, UniProt P27958 192-383; P27958 384-746)
# [2] = target: H77 E1E2 mutant P544A (HCV isolate H77, UniProt P27958 192-383; P27958 384-746)
# [3] = target: H77 E1E2 mutant N423A (HCV isolate H77, UniProt P27958 192-383; P27958 384-746)
# [4] = target: H77 E1E2 mutant N540A (HCV isolate H77, UniProt P27958 192-383; P27958 384-746)
# [5] = target: H77 E1E2 mutant R543A (HCV isolate H77, UniProt P27958 192-383; P27958 384-746)
# [6] = target: H77 E1E2 mutant T416A (HCV isolate H77, UniProt P27958 192-383; P27958 384-746)
# [7] = target: H77 E1E2 mutant D535A (HCV isolate H77, UniProt P27958 192-383; P27958 384-746)
# [8] = target: H77 E1E2 mutant I422A (HCV isolate H77, UniProt P27958 192-383; P27958 384-746)
# [9] = target: H77 E1E2 mutant W420A (HCV isolate H77, UniProt P27958 192-383; P27958 384-746)
# [10] = target: H77 E1E2 mutant P525A (HCV isolate H77, UniProt P27958 192-383; P27958 384-746)
# [11] = target: H77 E1E2 mutant T526A (HCV isolate H77, UniProt P27958 192-383; P27958 384-746)
# [12] = target: H77 E1E2 mutant T534A (HCV isolate H77, UniProt P27958 192-383; P27958 384-746)
# [13] = target: H77 E1E2 mutant Y527A (HCV isolate H77, UniProt P27958 192-383; P27958 384-746)
# [14] = target: H77 E1E2 mutant Y489A (HCV isolate H77, UniProt P27958 192-383; P27958 384-746)
# [15] = target: H77 E1E2 mutant N532A (HCV isolate H77, UniProt P27958 192-383; P27958 384-746)
# [16] = target: H77 E1E2 mutant H488A (HCV isolate H77, UniProt P27958 192-383; P27958 384-746)
# [17] = target: H77 E1E2 mutant V538A (HCV isolate H77, UniProt P27958 192-383; P27958 384-746)
# [18] = target: H77 E1E2 mutant L413A (HCV isolate H77, UniProt P27958 192-383; P27958 384-746)
# [19] = target: H77 E1E2 mutant N417A (HCV isolate H77, UniProt P27958 192-383; P27958 384-746)
# [20] = target: H77 E1E2 mutant S419A (HCV isolate H77, UniProt P27958 192-383; P27958 384-746)
# [21] = target: H77 E1E2 mutant Q412A (HCV isolate H77, UniProt P27958 192-383; P27958 384-746)
# [22] = target: H77 E1E2 mutant F550A (HCV isolate H77, UniProt P27958 192-383; P27958 384-746)
# [23] = target: H77 E1E2 mutant W549A (HCV isolate H77, UniProt P27958 192-383; P27958 384-746)
# [24] = target: H77 E1E2 mutant W529A (HCV isolate H77, UniProt P27958 192-383; P27958 384-746)
# [25] = target: H77 E1E2 mutant G523A (HCV isolate H77, UniProt P27958 192-383; P27958 384-746)
# [26] = target: H77 E1E2 mutant D533A (HCV isolate H77, UniProt P27958 192-383; P27958 384-746)
# [27] = target: H77 E1E2 mutant H421A (HCV isolate H77, UniProt P27958 192-383; P27958 384-746)
# [28] = target: H77 E1E2 mutant I414A (HCV isolate H77, UniProt P27958 192-383; P27958 384-746)
binder,measurement,setting,value
"MAb AR3D (antibody, V domains shown, also called IgG1 of Fab L4) VH: LEQSGAEVKKPGSSVKVSCKASGDTFRSYVITWARQAPGQGLEWMGAIIPFFGTTNLAQKFQGRVTITADESTKTVYMDLSSLRSDDTAVYYCAKAGDLSVGGVLAGGVPHLRHFDPWGQGTLVTVSS VL: ELTQSPGTLSLSPGERATLSCRAGQTVASNSLAWYQHKPGQAPRLLIYGASIRASGIPDRFSGSGSGTDFTLTISRLEPEDFAVYYCQQYGLSSTFGQGTRLEIKR",binding vs wild-type E1E2,[1],145%
same,binding vs wild-type E1E2,[2],318%
same,binding vs wild-type E1E2,[3],65%
same,binding vs wild-type E1E2,[4],56%
same,binding vs wild-type E1E2,[5],276%
same,binding vs wild-type E1E2,[6],90%
same,binding vs wild-type E1E2,[7],32%
same,binding vs wild-type E1E2,[8],113%
same,binding vs wild-type E1E2,[9],68%
same,binding vs wild-type E1E2,[10],53%
same,binding vs wild-type E1E2,[11],135%
same,binding vs wild-type E1E2,[12],181%
same,binding vs wild-type E1E2,[13],119%
same,binding vs wild-type E1E2,[14],113%
same,binding vs wild-type E1E2,[15],159%
same,binding vs wild-type E1E2,[16],123%
same,binding vs wild-type E1E2,[17],95%
same,binding vs wild-type E1E2,[18],83%
same,binding vs wild-type E1E2,[19],74%
same,binding vs wild-type E1E2,[20],73%
same,binding vs wild-type E1E2,[21],44%
same,binding vs wild-type E1E2,[22],320%
same,binding vs wild-type E1E2,[23],274%
same,binding vs wild-type E1E2,[24],88%
same,binding vs wild-type E1E2,[25],48%
same,binding vs wild-type E1E2,[26],146%
same,binding vs wild-type E1E2,[27],87%
same,binding vs wild-type E1E2,[28],126%
